Experiment in all cases: ELISA, ligand coated on plate, RAGE-Fc titrated, anti-IgG Fc-HRP detection; apparent Kd
(In an ELISA, binding on a coated surface is turned into a signal by an enzyme label.)

In assay [1] the target is T1, CML-HSA (carboxymethylated human serum albumin) (human, UniProt P02768 25-609, carboxymethylated (CML); modified sites not stated).
T1 construct: An advanced glycation end-product form of HSA, coated on the ELISA plate
The method, then:
(§1) Functional ELISA assays were performed to assess the ligand binding characteristics of RAGE-Fc fusion proteins. Apparent binding affinities of RAGE-Fc fusion proteins to the RAGE ligands CML-HSA, HMGB1, S100A9 and S100A12 were measured for the following fusion proteins: Construct #1 (SEQ ID NO: 5), Construct #9 (SEQ ID NO: 53), Construct #10 (SEQ ID NO: 12), Construct #12 (SEQ ID NO: 15), and Construct #16 (SEQ ID NO: 16). Previous experiments were carried out to determine fundamental functionality of an ELISA, optimal coating concentrations and volumes, a dynamic range for the RAGE-Fc constructs, as well as optimized antibody dilutions and TMB development times.
(§2) RAGE ligands CML-HSA, HMGB1, S100A9 and S100A12 were separately coated onto a coated plate (MaxiSorp™) at a concentration of 50 nanomolar (nM), 100 microliters (μL) per well. RAGE ligand CML-HSA was separately coated onto a coated plate (MaxiSorp™) at a concentration of 100 nanograms (ng), 100 μL per well. The plates were then incubated overnight at 4° C. to allow the protein to bind to the plate coating. Following the coating step, the plates were washed once with 150 μL of wash solution (2.67 mM potassium chloride, […], 136.9 mM sodium chloride, 8.10 mM sodium phosphate dibasic, 0.05% Tween-20). […] After the blocking step, two washes were performed with the wash solution. The RAGE-Fc fusion protein was then incubated on the wells in log10 dilution with each separate ligand for 120 minutes at 37° C. while shaking. After the RAGE-Fc binding step, three washes were performed with the wash solution. Binding of the RAGE-Fc fusion to […], HMGB1, S100A9, and S100A12 was detected with a horseradish peroxidase (HRP) conjugated antibody with antigen specificity to IgG Fc (Abcam, Cat. No. ab99759). 100 μL of antibody diluted 1:5000 in DBPS was added to the assay wells, followed by 60 minutes of incubation at 37° C. while shaking. The wells were then washed four times with the wash solution. 100 μL of TMB (ThermoFisher Scientific, Cat. No. 34029) was then added to each well.

Another assay has as its target T2, HMGB1 (amphoterin) (UniProt P09429 1-215, limits assumed).
T2 sequence (looked up): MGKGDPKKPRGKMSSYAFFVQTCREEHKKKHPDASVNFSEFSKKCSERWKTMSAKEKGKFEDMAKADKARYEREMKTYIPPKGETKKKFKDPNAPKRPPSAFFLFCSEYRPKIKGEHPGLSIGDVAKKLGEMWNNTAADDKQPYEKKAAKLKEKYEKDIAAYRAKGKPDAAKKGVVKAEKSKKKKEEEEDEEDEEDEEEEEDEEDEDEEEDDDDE
The method, then:
as §1, §2

Another assay concerns the target T3, S100A9 (UniProt P06702 1-114, limits assumed).
T3 sequence (looked up): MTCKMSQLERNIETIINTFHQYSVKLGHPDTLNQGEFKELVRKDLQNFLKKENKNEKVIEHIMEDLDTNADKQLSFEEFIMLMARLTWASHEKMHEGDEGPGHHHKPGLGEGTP
The method, then:
as §1, §2

The target in the next assay is T4, S100A12 (UniProt P80511 1-92, limits assumed).
T4 sequence (looked up): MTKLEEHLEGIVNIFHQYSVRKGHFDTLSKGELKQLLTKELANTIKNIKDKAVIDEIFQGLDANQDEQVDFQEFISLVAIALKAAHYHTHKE
The procedure: as §1, §2

Substitutions are numbered along the chain they refer to.

The results in this text go back to patent US20210188940A1 (BIOAGE LABS, published 2021).

T1 sequence (P02768 25-609 limits assumed): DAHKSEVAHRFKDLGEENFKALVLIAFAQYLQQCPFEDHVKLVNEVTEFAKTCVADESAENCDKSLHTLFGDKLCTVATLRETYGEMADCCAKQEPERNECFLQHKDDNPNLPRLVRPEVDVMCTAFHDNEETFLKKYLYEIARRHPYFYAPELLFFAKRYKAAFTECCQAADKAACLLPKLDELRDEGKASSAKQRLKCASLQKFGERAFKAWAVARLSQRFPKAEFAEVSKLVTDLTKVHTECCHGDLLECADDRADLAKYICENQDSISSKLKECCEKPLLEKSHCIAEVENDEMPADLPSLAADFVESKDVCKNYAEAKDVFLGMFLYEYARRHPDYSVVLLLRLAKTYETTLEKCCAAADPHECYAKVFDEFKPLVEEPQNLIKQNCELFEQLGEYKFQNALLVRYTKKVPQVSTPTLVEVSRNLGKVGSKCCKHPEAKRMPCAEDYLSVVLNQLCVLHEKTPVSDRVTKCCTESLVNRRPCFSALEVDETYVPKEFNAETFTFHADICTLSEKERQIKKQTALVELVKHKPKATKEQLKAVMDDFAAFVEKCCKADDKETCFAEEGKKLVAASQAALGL

B1: Construct #12: RAGE V-C1-C2-V1stem(M/A)-IgG2 lower hinge-(IgG4CH2-CH3) (Fc fusion)
chain: AQNITARIGEPLVLKCKGAPKKPPQRLEWKLNTGRTEAWKVLSPQGGGPWDSVARVLPNGSLFLPAVGIQDEGIFRCQAMNRNGKETKSNYRVRVYQIPGKPEIVDSASELTAGVPNKVGTCVSEGSYPAGTLSWHLDGKPLVPNEKGVSVKEQTRRHPETGLFTLQSELMVTPARGGDPRPTFSCSFSPGLPRHRALRTAPIQPRVWEPVPLEEVQLVVEPEGGAVAPGGTVTLTCEVPAQPSPQIHWMKDGVPLPLPPSPVLILPEIGPQDQGTYSCVATHSSHGPQESRAVSISIIEPGEEGPTAGEGFDKVREAEDSPQHAVECPPCAPPVAGGPSVFLFPPKPKDTLMISRTPEVTCVVVDVSQEDPEVQFNWYVDGVEVHNAKTKPREEQFNSTYRVVSVLTVLHQDWLNGKEYKCKVSNKGLPSSIEKTISKAKGQPREPQVYTLPPSQEEMTKNQVSLTCLVKGFYPSDIAVEWESNGQPENNYKTTPPVLDSDGSFFLYSRLTVDKSRWQEGNVFSCSVMHEALHNHYTQKSLSLSLGK
notes: also called esRAGE-Fc fusion
Consider B1, for which the Kd in assay [1] was found to be 39 nM; with HMGB1 (amphoterin), 7 nM; with S100A9 it was 25 nM; with S100A12, 44 nM.

B2: Construct #16: RAGE V-C1-C2-V1stem(M/A)-IgG2 lower hinge-(IgG4CH2-CH3)-YTE (Fc fusion)
chain: B1 chain with M353Y, S355T, T357E
notes: also called #12 + YTE; esRAGE-Fc fusion
Consider B2, for which the Kd in assay [1] was 35 nM; with HMGB1 (amphoterin) it was 7 nM; in the assay with S100A9, 27 nM; with S100A12, 36 nM.
